From article PMC6600523, “Interference with Amyloid-β Nucleation by Transient Ligand Interaction” (Molecules, 2019)
Where a SMILES comes first, the peptide text is derived from it. [ ]: non-standard residue; d: D form. The star is where a group is joined. 5FAM = O=C1OC2(c3ccc(O)cc3Oc3cc(O)ccc32)c2ccc(C(=O)*)cc21

How the values were obtained:
[1] = Sedimentation velocity AUC with fluorescence detection, labeled peptide alone; format: physicochemical; details: AUC-FDS, 60,000 rpm, 20 °C, 15 h, c(s) model; 0.2 μM FITC-D3 in 20 mM sodium phosphate, 50 mM NaCl pH 7.4, 0.0004% PEI; 0.33 μM FITC-Aβ42 in 55 mM Tris, 50 mM NaCl pH 7.4, 0.01% Tw20
Procedure: All measurements were performed using an XL-A analytical ultracentrifuge (Beckman coulter, Brea, CA, USA). […] All samples were prepared in 20 mM sodium phosphate, 50 mM NaCl (pH 7.4) containing 0.0004% PEI (w/v). Samples were then loaded into 3-mm double-sector titanium cells (Nanolytics, Potsdam, Germany), with each sector containing a 100 μL sample. The detection system uses an excitation laser at 488 nm and an emission cut-off filter at 505 nm to collect fluorescence signals. The amplification factor was adjusted to the same value for all samples for comparability. […] Data was acquired at 20 nm radial resolution. After thorough thermal equilibration the centrifugation was carried out at 60,000 rpm (289,000× g) at 20 °C for 15 h. Carrier proteins, such as albumin and kappa casein, are usually recommended to minimize unspecific surface adsorption for fluorescence-based AUC [56]. All sedimentation profiles were subjected to the software package SEDFIT (version 15.01b) for data evaluation. The data was analyzed with the continuous distribution c(s) Lamm equation model to obtain the sedimentation coefficient distributions. Fitting parameters (Table S1) including the buffer density and viscosity were determined using Sednterp (version 20130813BETA). […]

[2] = target: T1, Aβ42 (Homo sapiens, UniProt P05067); test: Sedimentation velocity AUC with fluorescence detection, Aβ42 and D3 mixtures; format: binding
T1 construct: purchased Bachem H-1368.1000
Procedure: All measurements were performed using an XL-A analytical ultracentrifuge (Beckman coulter, Brea, CA, USA). […] All samples were prepared in 20 mM sodium phosphate, 50 mM NaCl (pH 7.4) containing 0.0004% PEI (w/v). Samples were then loaded into 3-mm double-sector titanium cells (Nanolytics, Potsdam, Germany), with each sector containing a 100 μL sample. The detection system uses an excitation laser at 488 nm and an emission cut-off filter at 505 nm to collect fluorescence signals. The amplification factor was adjusted to the same value for all samples for comparability. […] Data was acquired at 20 nm radial resolution. After thorough thermal equilibration the centrifugation was carried out at 60,000 rpm (289,000× g) at 20 °C for 15 h. Carrier proteins, such as albumin and kappa casein, are usually recommended to minimize unspecific surface adsorption for fluorescence-based AUC [56]. All sedimentation profiles were subjected to the software package SEDFIT (version 15.01b) for data evaluation. The data was analyzed with the continuous distribution c(s) Lamm equation model to obtain the sedimentation coefficient distributions. Fitting parameters (Table S1) including the buffer density and viscosity were determined using Sednterp (version 20130813BETA). […] Final graphs were generated using GUSSI (version 1.2.1) and sedimentation coefficients were standardized to s-values in pure water at 20 °C (s20,w).

[3] = target: T1, Aβ42; test: ThT assay, fibrillation kinetics of Aβ42; format: biochemical; details: 50 mM NaCl pH 7.4, 20 °C, AmyloFit fit, triplicate
Procedure: ThT was added at a final concentration of 5 μM in all samples. The final volume of each sample was 200 μL. Samples were prepared on ice and were pipetted into a 96-well plate afterwards. The plate was sealed with a microplate sealing film. All measurements were conducted at 20 °C with a microplate reader (Infinite M200, Tecan, Männedorf, Switzerland). The fluorescence was recorded at an excitation wavelength (λex) of 445 nm and an emission wavelength (λem) of 485 nm every 30 min for 120 h. […] All samples were prepared in triplicate.
The ThT data was then subjected to the online server AmyloFit with a customized sigmoidal Equation (1) to determine the lag time tlag , and the half completion time of the aggregation process t1/2 , according to previous studies. (1) It=k0t+A/1+exp−kt−t1/2, where k0 represents the slope of the baseline, A is the amplitude, k denotes the apparent elongation rate constant. The lag time tlag can be derived from the intercept between the time axis and the tangent with slope k from the midpoint of the fitted sigmoidal curve, which is given by the following Equation (2):(2) tlag=t1/2−2/k

[4] = 20 μM Aβ42 with (label D3, 10:1) or without (label Aβ42) 2 μM D3, 55 mM Tris-HCl

T1 sequence (P05067 672-713 limits assumed): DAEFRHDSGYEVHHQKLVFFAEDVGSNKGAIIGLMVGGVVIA

Row | Compound | Sedimentation coefficient s20,w of the labeled peptide alone [1] [S] | s20,w of the main peak of FITC-D3 with Aβ42 ([2]; 0.2 μM FITC-D3 with 50-fold excess of Aβ42, 20 mM sodium phosphate, 50 mM NaCl pH 7.4, 0.0004% PEI, interpreted as 1:1 complex) [S] | Averaged s20,w of the new species between 1 and 2 S, FITC-D3 with Aβ42 ([2]; 0.2 μM FITC-D3 with Aβ42, c(s) analyses from five independent experiments, complexes with higher stoichiometries) [S] | Lag time tlag of fibrillation kinetics ([3]; 20 μM Aβ42 with (label D3) or without (label Aβ42) 2 μM D3, 20 mM sodium phosphate, 5 μM ThT) [h] | Lag time tlag of fibrillation kinetics, Tris-HCl buffer [3, 4] [h] | Slope k of fibrillation kinetics, Tris-HCl buffer [3, 4]
1 | CC(C)C[C@@H](NC(=O)[C@@H](CCCNC(=N)N)NC(=O)[C@H](NC(=O)[C@@H](CCCNC(=N)N)NC(=O)[C@H]1CCCN1C(=O)[C@H](N)CCCNC(=N)N)[C@H](C)O)C(=O)N[C@H](Cc1c[nH]cn1)C(=O)N[C@@H](C(=O)N[C@H](Cc1c[nH]cn1)C(=O)N[C@H](CCCNC(=N)N)C(=O)N[C@H](CC(N)=O)C(=O)N[C@H](CCCNC(=N)N)C(=O)N[C@@H](CCCCNC(=O)c1ccc2c(c1)C(=O)OC21c2ccc(O)cc2Oc2cc(O)ccc21)C(N)=O)[C@H](C)O [FITC-D3] (H-[dR][dP][dR][dT][dR][dL][dH][dT][dH][dR][dN][dR]K(5FAM)-NH2; N-terminus and C-terminus assumed) | 0.54 ± 0.02 | 0.71 ± 0.04 | 1.45 ± 0.08 |  |  | 
2 | Aβ42: unlabeled amyloid-β peptide 42, Bachem product No. H-1368.1000 [reference compound] |  |  |  | 17.3 ± 1.6 | 14.5 ± 1.4 | 0.13 ± 0.01
